In patent publication US20190030126A1, “Inhibitors of the Interaction BCL-2 L10 / IP3 Receptors” (Universite Claude Bernard - Lyon 1, priority 2016, published 2019):
Several values for one entry are separate records, joined by “and”; a condition that tells them apart may be missing. Equal entries are not always repeated. No end group written: not given here.

Tests used:
[1] = tested on: HeLa cells; assay: Test of apoptosis (SR-FLICA, caspase activity) in transfected HeLa cells treated with thapsigargin; assay type: cell-based, human; conditions: 10 μM thapsigargin for 24 h; for potentiation of thapsigargin effect on caspase activity: HeLa cells transfected with peptide construct (fused to Cb5)
Method: (B) Test of apoptosis (SR-FLICA) in response to 10 μM of thapsigargin for 24 h in HeLa cells transfected with the empty vector pCS2+ or the constructs coding for Nrh-WT (wild-type), Nrh-ActA, Nrh-cb5, Nrh-dTM or Nrh-dBH4 (N=3). ***, p<0.001;**, p<0.01; n.s. p>0.1 (Student t-test).
(C) Test of apoptosis (SR-FLICA) in response to 10 μM of thapsigargin for 24 h in HeLa cells transfected with the empty vector pCS2+ or the constructs coding for the peptides Nrh 1-23, Nrh 1-23 Y16F or Nrh 1-23 C20A (N=3). ***, p<0.001;**, p<0.01; n.s. p>0.1 (Student t-test).
The effects of these various proteins were observed after transfection of HeLa cells by the empty vector pCS2+ or with the constructs coding for Nrh, Nrh-ActA, Nrh-cb5, dTM or dBH4.

[2] = target: T1, interaction of Bcl-2 L10/Nrh with the BD domain of the receptor IP3R1 (Homo sapiens, UniProt Q9HD36); assay: Immunoprecipitation (anti-HA) of the Flag-Nrh / HA-hBD interaction in HeLa cells co-transfected with peptide plasmids; assay type: cell-based; conditions: peptides Flag-tagged, fused to cytochrome b5 domain, plasmid ratio 1:2
T1 construct: expressed in transfected cells; host or cells: HeLa
T1 sequence (Q9HD36 11-204): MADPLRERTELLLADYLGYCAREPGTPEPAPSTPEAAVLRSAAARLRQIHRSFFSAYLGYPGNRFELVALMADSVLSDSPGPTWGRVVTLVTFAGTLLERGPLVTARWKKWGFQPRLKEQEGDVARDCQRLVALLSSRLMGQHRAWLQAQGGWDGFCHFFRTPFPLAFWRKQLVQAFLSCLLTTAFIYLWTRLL
Excerpt: (B) Quantification of the Nrh-IP3R1 interaction by immunoprecipitation experiments with anti-HA antibodies in HeLa cells transfected with plasmids coding for Flag-Nrh, HA-hBD and the different point mutants of the peptides Nrh 1-23 Flag-tagged with a ratio of 1:2 (N=3).
FIG. 5B presents the ability of these different peptides to inhibit the interaction of Bcl-2 L10/Nrh with the BD domain of the receptor IP3R1. This interaction is quantified by the immunoprecipitation technique, the BD domain being tagged with an HA epitope and the protein Bcl-2 L10/Nrh being tagged with a Flag epitope.
HeLa cells are transfected with plasmids coding for Flag-Nrh, HA-hBD and the different point mutants of the peptide Nrh 1-23 Flag-tagged with a ratio of 1:2, and immunoprecipitation is carried out with an anti-HA antibody.

[3] = target: T2, HA-hBD (IP3 binding domain of IP3R1) (Homo sapiens, UniProt Q14643); assay: Streptavidin pull-down with biotin-labelled peptide, HeLa extracts expressing HA-hBD; conditions: 5 μg of biotin-labelled peptide
T2 construct: extending from residue 226 to residue 565 in the human protein; expressed in transfected cells; host or cells: HeLa (cellular extracts)
T2 sequence (Q14643 226-565): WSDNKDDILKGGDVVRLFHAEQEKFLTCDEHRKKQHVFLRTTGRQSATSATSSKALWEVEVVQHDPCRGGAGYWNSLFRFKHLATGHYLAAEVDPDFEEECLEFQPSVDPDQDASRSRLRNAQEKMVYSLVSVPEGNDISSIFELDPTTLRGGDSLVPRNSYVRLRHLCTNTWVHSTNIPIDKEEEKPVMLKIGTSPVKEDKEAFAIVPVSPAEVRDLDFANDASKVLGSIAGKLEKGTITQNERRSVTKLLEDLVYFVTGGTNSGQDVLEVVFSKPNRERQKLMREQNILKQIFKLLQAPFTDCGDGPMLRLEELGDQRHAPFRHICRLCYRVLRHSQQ
Method: (§1) (A) Streptavidin pull-down in HeLa cells transfected with either empty vector pCS2+, Flag-Nrh, HA-hBD or HA-BECN1, which cellular extracts were incubated or not with 5 μg of biotin-labelled Nrh 1-23 peptide.
(§2) (A) HeLa cells were transfected with either empty vector pCS2+, Flag-Nrh, HA-hBD or HA-Beclin1 (referred to as HA-BECN1), a protein well known for its binding capacities to Nrh, then cellular extracts were incubated or not with 5 μg of biotin-labelled Nrh 1-23 wild-type peptide. Streptavidin is used for pulling-down the complexes comprising biotin-labelled Nrh peptide.

[4] = tested on: Flag-Nrz; assay: Streptavidin pull-down with biotin-labelled peptide, HeLa extracts expressing Flag-Nrz; assay type: binding, zebrafish; conditions: 5 μg of biotin-labelled peptide
Method: (§3) (B) Streptavidin pull-down in HeLa cells transfected with either empty vector pCS2+, Flag-Nrh, or Flag-Nrz, which cellular extracts were incubated with 5 μg of biotin-labelled Nrh 1-23 peptide or Nrh 1-23 R6A Y16F double mutant peptide.
(§4) Streptavidin is used for pulling-down the complexes comprising biotin-labelled Nrh peptide.

[5] = target: T3, Nrh homodimer (Flag-Nrh / HA-Nrh) (Homo sapiens, UniProt Q9HD36); assay: Co-immunoprecipitation (anti-HA) of Flag-Nrh and HA-Nrh: Nrh homodimerisation; assay type: binding; conditions: incubation with the peptide
T3 construct: the ability of the whole protein Nrh (Bcl-2 L10) to dimerise
T3 sequence (Q9HD36 11-204): T1 sequence (Q9HD36 11-204)
Excerpt: Quantification of the interaction between Flag-Nrh and HA-Nrh using co-immunoprecipitation with anti-HA antibody.
FIG. 7 illustrates the quantification of the interaction between Flag-Nrh and HA-Nrh using co-immunoprecipitation with anti-HA antibody. Formation of a Nrh homodimer is observed.

[6] = target: T4, Flag-Nrh (Bcl-2 L10) (Homo sapiens, UniProt Q9HD36); assay: Streptavidin pull-down with biotin-labelled peptide, HeLa extracts expressing Flag-Nrh; assay type: binding; conditions: 5 μg of biotin-labelled peptide
T4 construct: expressed in transfected cells; host or cells: HeLa (cellular extracts)
T4 sequence (Q9HD36 1-204): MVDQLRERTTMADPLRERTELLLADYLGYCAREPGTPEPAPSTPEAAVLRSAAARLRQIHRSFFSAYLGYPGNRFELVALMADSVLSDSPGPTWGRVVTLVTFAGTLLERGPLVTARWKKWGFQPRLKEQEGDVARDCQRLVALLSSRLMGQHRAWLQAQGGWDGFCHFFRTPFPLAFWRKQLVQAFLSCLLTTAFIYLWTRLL
Method: as §1, §3, §2, §4

[7] = target: T5, interaction between the endogenous proteins Nrh and IP3R1 (Homo sapiens, UniProt Q9HD36); assay: Proximity ligation assay (PLA) of endogenous Nrh and IP3R1 in MDA-MB-231 cells; assay type: cell-based; conditions: for inhibition of the Nrh/IP3R1 interaction relative to the limit value: conclusion of the PLA experiment; for percentage inhibition of the Nrh/IP3R1 interaction: with 488 nm flash
T5 construct: endogenous in cells; host or cells: MDA-MB-231
T5 sequence (Q9HD36 11-204): T1 sequence (Q9HD36 11-204)
Method: (A) Proximity ligation assay (PLA) experiments allowing for the detection of the interaction between the endogenous proteins Nrh and IP3R1 in MDA-MB-231 cells.
The MDA-MB-231 cells are incubated for 4 h with the peptide TAT Nrh-1-23 (SEQ ID NO. 4) or the control peptide TAT-Nrh 1-23 Y16F (SEQ ID NO 12, 14 and 6). After 3 washes of the cells, a 488 nm laser is used to excite the fluorophore (FITC) present in the endosomes, rupture the endosomal membrane and release the TAT-FITC peptides into the cytosol. The cells are incubated for 12 h then fixed, and the interaction between Nrh and IP3R1 is quantified by PLA using a rabbit anti-Nrh primary antibody and a mouse anti-IP3R1 primary antibody. This step is followed by incubation with a mixture of anti-rabbit and anti-mouse secondary antibodies, each coupled to a complementary nucleotide probe. A step of ligation then amplification is then carried out in the presence of fluorescent nucleotides, making it possible to amplify a specific signal in the case of spatial proximity of the probes. The fluorescence signal, in which each dot corresponds to an interaction in the cell, is recorded by means of a Nikon NiE fluorescence microscope. The images are quantified by the Image J software, and the interaction score is represented on the graph as number of dots per cell (N=3).

[8] = target: endogenous protein Bcl-2 L10/Nrh (in cells) (human) (UniProt Q9HD36); assay: proximity ligation assay of endogenous Nrh and IP3R1, MDA-MB-231 cells; against the no-flash control
[9] = target: endogenous protein Bcl-2 L10/Nrh (in cells) (human) (UniProt Q9HD36); assay: proximity ligation assay of endogenous Nrh and IP3R1, MDA-MB-231 cells; against the vehicle control
[10] = target: endogenous protein Bcl-2 L10/Nrh (in cells) (human) (UniProt Q9HD36); assay: cell-based or functional assay
[11] = target: endogenous protein Bcl-2 L10/Nrh (in cells) (human) (UniProt Q9HD36); assay: proximity ligation assay of endogenous Nrh and IP3R1, MDA-MB-231 cells; as a function of the negative control
[12] = target: T6, HA-hBD (IP3 ligand binding domain of human IP3R1 tagged with an HA epitope) (human, UniProt Q14643-2 226-565, limits assumed); assay: streptavidin pull-down from extracts of transfected HeLa cells
T6 construct: Expressed in HeLa cells; also called HA-hBD IP3R1; BD domain of the receptor IP3R1
T6 sequence (Q14643 other isoform, or with tags, fused parts or gaps limits assumed): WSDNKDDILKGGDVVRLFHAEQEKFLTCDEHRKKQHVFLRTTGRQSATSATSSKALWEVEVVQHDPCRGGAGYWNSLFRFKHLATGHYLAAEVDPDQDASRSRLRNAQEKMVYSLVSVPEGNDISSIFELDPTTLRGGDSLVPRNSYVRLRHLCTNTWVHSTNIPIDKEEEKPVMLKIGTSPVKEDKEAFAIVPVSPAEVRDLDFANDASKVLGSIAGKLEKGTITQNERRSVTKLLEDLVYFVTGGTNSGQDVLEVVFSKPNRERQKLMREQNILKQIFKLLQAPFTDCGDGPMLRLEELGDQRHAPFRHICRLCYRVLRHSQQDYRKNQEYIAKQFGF

[13] = 488 nm flash used to release the peptide

## C/C=C(/C)C(=O)O[C@H]1C(C)=C2[C@H]([C@@H]1OC(=O)CCCCCCC)[C@@](C)(OC(C)=O)C[C@H](OC(=O)CCC)[C@@]1(O)[C@H]2OC(=O)[C@@]1(C)O [thapsigargin, reference compound]
[1]; HeLa control cells (empty vector pCS2+)
  caspase activity: greatly induced

## MADPLAERTELLLADYLGYCARE (Synthetic peptide Peptide R6A) [Nrh R6A, point mutant of Nrh 1-23, non-functional]
[2]
  ability to inhibit the Nrh/IP3R1 BD interaction (Flag-Nrh band on Western blot after anti-HA immunoprecipitation): still visible, albeit faintly

## MADPLRERTELLLAAYLGYCARE (Synthetic peptide D15A) [Nrh D15A, point mutant of Nrh 1-23, functional]
[2]
  ability to inhibit the Nrh/IP3R1 BD interaction (Flag-Nrh band on Western blot after anti-HA immunoprecipitation): dissociate the Nrh/IP3R1 interaction

## MADPLRERTELLLADFLGYCARE (Synthetic peptide Y16F) [Nrh Y16F, point mutant of Nrh 1-23, non-functional]
[2]
  ability to inhibit the Nrh/IP3R1 BD interaction (Flag-Nrh band on Western blot after anti-HA immunoprecipitation): still visible, albeit faintly

## MADPLRERTELLLADYLGYAARE (Synthetic peptide C20A) [Nrh C20A, point mutant of Nrh 1-23, functional]
[2]
  ability to inhibit the Nrh/IP3R1 BD interaction (Flag-Nrh band on Western blot after anti-HA immunoprecipitation): dissociate the Nrh/IP3R1 interaction
[1]
  potentiation of thapsigargin effect on caspase activity: this effect is maintained

## MADPLRERTELLLADYLGYCARE [Nrh 1-23]
[2]
  ability to inhibit the Nrh/IP3R1 BD interaction (Flag-Nrh band on Western blot after anti-HA immunoprecipitation): dissociate the Nrh/IP3R1 interaction
[3]
  interaction with HA-hBD (pull-down): not with HA-hBD
[4]
  interaction with Nrz (pull-down): not Nrz
[5]
  prevention of Nrh homodimerisation: can be prevented
[1]
  potentiation of thapsigargin effect on caspase activity: virtually doubled
[6]
  interaction with Nrh (pull-down): only able to interact with Nrh

## Nrh 1-23 R6A Y16F: biotin-labelled Nrh 1-23 R6A Y16F double mutant peptide (MADPLAERTELLLADFLGYCARE; also: biotin-labelled (position not given here))
[6]
  interaction with Nrh (pull-down): reduced interaction with Nrh

## RKKRRQRRRGGSGGADPLRERTELLLADYLGYCARE [TAT Nrh 1-23]
[7]; [13]
  PLA interaction score Nrh/IP3R1: 11±1 dots per cell
[7]
  inhibition of the Nrh/IP3R1 interaction relative to the limit value: at least 30%
[7]; in the absence of 488 nm flash (no release of the peptides into the cytosol)
  PLA interaction score Nrh/IP3R1: 87±6 dots per cell
[7]; negative control = TAT Nrh 1-23 without flash (87 dots per cell)
  percentage inhibition of the Nrh/IP3R1 interaction: 87%
[7]; negative control = vehicle (80 dots per cell)
  percentage inhibition of the Nrh/IP3R1 interaction: 86%

## TAT Nrh Y16F: combination of TAT (SEQ ID NO. 12), a spacer (SEQ ID NO. 14) and SEQ ID NO. 6 without the methionine; control outside the invention (RKKRRQRRRGGSGGADPLRERTELLLADFLGYCARE)
[7]; [13]
  PLA interaction score Nrh/IP3R1: 65±5 dots per cell
[7]
  inhibition of the Nrh/IP3R1 interaction relative to the limit value: < 30%

## control peptide TAT-Nrh 1-23 Y16F, FITC-coupled
[8]
  percentage inhibition of the Nrh/IP3R1 interaction: 25%
[9]
  percentage inhibition of the Nrh/IP3R1 interaction: 18.8%

## peptide Nrh 1-23 fused at the C-terminal end with the cytochrome b5 targeting domain, Flag-tagged
[10]
  caspase activity (SR-FLICA apoptosis test), HeLa cells, 10 µM thapsigargin for 24 h: 2 fold

## peptide TAT-Nrh 1-23 (TAT-spacer-domain of binding to IP3Rs without methionine), FITC-coupled
[11]
  percentage inhibition of the Nrh/IP3R1 interaction: 86% and 87%

B1: biotin-labelled Nrh 1-23 wild-type peptide (peptide)
peptide: MADPLRERTELLLADYLGYCARE
modifications: also: biotin-labelled (position not given here)
notes: 3 (same without the first methionine); also called biotin-labelled Nrh 1-23 peptide
[12]
  binding result: no binding (tested: 5 µg of biotin-labelled peptide)

B2: Bcl-2 L10/Nrh-WT: the human Bcl-2 L10/Nrh protein in its wild-type, whole form, expressed from a transfected construct (protein, UniProt Q9HD36 1-204, looked up)
chain: T4 sequence (Q9HD36 1-204)
modifications: full-length
notes: the human Bcl-2 L10/Nrh protein in its wild-type, whole form, expressed from a transfected construct
[1]; HeLa cells overexpressing Nrh construct
  effect on thapsigargin-induced caspase activity (apoptosis-blocking effect): reduced by half
